In PMC5412568 (The Journal of Cell Biology, 2017):
Where two headings read alike, the source gives them in different places.

Columns and labels:
[1] = target: the molecule itself; assay: protein-induced fluorescence enhancement
[2] = target: the molecule itself; assay: protein-induced fluorescence enhancement; remark: listed apart in the source
[3] = target: cytoDATL (aa 1-415) K320G with super YFP at the C terminus (D. melanogaster, UniProt Q9VC57 1-415, K320G); assay: FRET or BRET

| Binder | binding result [1] | other results |
| --- | --- | --- |
| cytoDATL (aa 1-415) G343C, K320T (domain or fragment, Cy3 maleimide on the engineered cysteine G343C in the PIFE assays; unlabelled in cross-linking) MGGSAVQVINASEEHTFVLNEDALSEVLMRDEVKDRFVCVVSVAGAFRKGKSFLLDFFLRYMYSKYVHHDATDWLGGESDPLEGFSWRGGSERDTTGILMWSDIFLHDYPNGDKIAIILLDTQGAFDSQSTVRDCATVFALSTMLSSVQIYNLSQNIQEDDLQHLQLFTEYGRLALADTGKKPFQRLQFLVRDWSFPYEAEYGALGGDKILKRRLEVSDKQHPELQSLRRHISSCFTEVACFLMPHPGLNVATNPKFDGRLQDITPEFKSSLRSLVPMLLAPDNLVYKEISGQRVRARDLIQYFQSYMNIYKGNELPEPTSMLVATAEANHLTAVAAAKELYCQLMEEVCGGTRPYLSTAHLQTEHLRVKDKALFQFAAKRKMGGEEFTEKFRKQLEDDLEEVFTNYQAHNESKN | binds |  |
| cytoDATL (aa 1-415) G343C, K320G (domain or fragment, Cy3 maleimide on the engineered cysteine G343C in the PIFE assays; unlabelled in cross-linking) MGGSAVQVINASEEHTFVLNEDALSEVLMRDEVKDRFVCVVSVAGAFRKGKSFLLDFFLRYMYSKYVHHDATDWLGGESDPLEGFSWRGGSERDTTGILMWSDIFLHDYPNGDKIAIILLDTQGAFDSQSTVRDCATVFALSTMLSSVQIYNLSQNIQEDDLQHLQLFTEYGRLALADTGKKPFQRLQFLVRDWSFPYEAEYGALGGDKILKRRLEVSDKQHPELQSLRRHISSCFTEVACFLMPHPGLNVATNPKFDGRLQDITPEFKSSLRSLVPMLLAPDNLVYKEISGQRVRARDLIQYFQSYMNIYKGNELPEPGSMLVATAEANHLTAVAAAKELYCQLMEEVCGGTRPYLSTAHLQTEHLRVKDKALFQFAAKRKMGGEEFTEKFRKQLEDDLEEVFTNYQAHNESKN | binds |  |
| cytoDATL (aa 1-415) G343C, K320N (domain or fragment, Cy3 maleimide on the engineered cysteine G343C in the PIFE assays; unlabelled in cross-linking) MGGSAVQVINASEEHTFVLNEDALSEVLMRDEVKDRFVCVVSVAGAFRKGKSFLLDFFLRYMYSKYVHHDATDWLGGESDPLEGFSWRGGSERDTTGILMWSDIFLHDYPNGDKIAIILLDTQGAFDSQSTVRDCATVFALSTMLSSVQIYNLSQNIQEDDLQHLQLFTEYGRLALADTGKKPFQRLQFLVRDWSFPYEAEYGALGGDKILKRRLEVSDKQHPELQSLRRHISSCFTEVACFLMPHPGLNVATNPKFDGRLQDITPEFKSSLRSLVPMLLAPDNLVYKEISGQRVRARDLIQYFQSYMNIYKGNELPEPNSMLVATAEANHLTAVAAAKELYCQLMEEVCGGTRPYLSTAHLQTEHLRVKDKALFQFAAKRKMGGEEFTEKFRKQLEDDLEEVFTNYQAHNESKN | binds |  |
| cytoDATL (aa 1-415) G343C, K320E, E328R (domain or fragment, Cy3 maleimide on the engineered cysteine G343C) MGGSAVQVINASEEHTFVLNEDALSEVLMRDEVKDRFVCVVSVAGAFRKGKSFLLDFFLRYMYSKYVHHDATDWLGGESDPLEGFSWRGGSERDTTGILMWSDIFLHDYPNGDKIAIILLDTQGAFDSQSTVRDCATVFALSTMLSSVQIYNLSQNIQEDDLQHLQLFTEYGRLALADTGKKPFQRLQFLVRDWSFPYEAEYGALGGDKILKRRLEVSDKQHPELQSLRRHISSCFTEVACFLMPHPGLNVATNPKFDGRLQDITPEFKSSLRSLVPMLLAPDNLVYKEISGQRVRARDLIQYFQSYMNIYKGNELPEPESMLVATARANHLTAVAAAKELYCQLMEEVCGGTRPYLSTAHLQTEHLRVKDKALFQFAAKRKMGGEEFTEKFRKQLEDDLEEVFTNYQAHNESKN |  | binding result [2]: binds |
| cytoDATL (aa 1-415) G343C, K320M (domain or fragment, Cy3 maleimide on the engineered cysteine G343C in the PIFE assays; unlabelled in cross-linking) MGGSAVQVINASEEHTFVLNEDALSEVLMRDEVKDRFVCVVSVAGAFRKGKSFLLDFFLRYMYSKYVHHDATDWLGGESDPLEGFSWRGGSERDTTGILMWSDIFLHDYPNGDKIAIILLDTQGAFDSQSTVRDCATVFALSTMLSSVQIYNLSQNIQEDDLQHLQLFTEYGRLALADTGKKPFQRLQFLVRDWSFPYEAEYGALGGDKILKRRLEVSDKQHPELQSLRRHISSCFTEVACFLMPHPGLNVATNPKFDGRLQDITPEFKSSLRSLVPMLLAPDNLVYKEISGQRVRARDLIQYFQSYMNIYKGNELPEPMSMLVATAEANHLTAVAAAKELYCQLMEEVCGGTRPYLSTAHLQTEHLRVKDKALFQFAAKRKMGGEEFTEKFRKQLEDDLEEVFTNYQAHNESKN | binds |  |
| cytoDATL (aa 1-415) K320G with mCerulean3 at the C terminus (domain or fragment) MGGSAVQVINASEEHTFVLNEDALSEVLMRDEVKDRFVCVVSVAGAFRKGKSFLLDFFLRYMYSKYVHHDATDWLGGESDPLEGFSWRGGSERDTTGILMWSDIFLHDYPNGDKIAIILLDTQGAFDSQSTVRDCATVFALSTMLSSVQIYNLSQNIQEDDLQHLQLFTEYGRLALADTGKKPFQRLQFLVRDWSFPYEAEYGALGGDKILKRRLEVSDKQHPELQSLRRHISSCFTEVACFLMPHPGLNVATNPKFDGRLQDITPEFKSSLRSLVPMLLAPDNLVYKEISGQRVRARDLIQYFQSYMNIYKGNELPEPGSMLVATAEANHLTAVAAAKELYGQLMEEVCGGTRPYLSTAHLQTEHLRVKDKALFQFAAKRKMGGEEFTEKFRKQLEDDLEEVFTNYQAHNESKN |  | binding result [3]: binds |
| cytoDATL (aa 1-415) G343C, P317G (domain or fragment, Cy3 maleimide on the engineered cysteine G343C in the PIFE assays; unlabelled in cross-linking) MGGSAVQVINASEEHTFVLNEDALSEVLMRDEVKDRFVCVVSVAGAFRKGKSFLLDFFLRYMYSKYVHHDATDWLGGESDPLEGFSWRGGSERDTTGILMWSDIFLHDYPNGDKIAIILLDTQGAFDSQSTVRDCATVFALSTMLSSVQIYNLSQNIQEDDLQHLQLFTEYGRLALADTGKKPFQRLQFLVRDWSFPYEAEYGALGGDKILKRRLEVSDKQHPELQSLRRHISSCFTEVACFLMPHPGLNVATNPKFDGRLQDITPEFKSSLRSLVPMLLAPDNLVYKEISGQRVRARDLIQYFQSYMNIYKGNELGEPKSMLVATAEANHLTAVAAAKELYCQLMEEVCGGTRPYLSTAHLQTEHLRVKDKALFQFAAKRKMGGEEFTEKFRKQLEDDLEEVFTNYQAHNESKN | binds |  |
